Results taken from PMC9063849, “Crystal structure of the middle and C-terminal domains of Hsp90α labeled with a coumarin derivative reveals a potential allosteric binding site as a drug target” (Acta Crystallographica. Section D, Structural Biology, 2022).

How the values were obtained:
[1] = molecular target: the molecule itself; assay: SEC + other: dynamic light scattering; Hsp90αC+ at 1.0 mg/ml and FL Hsp90α at 2.1 mg/ml for DLS, 20 mM HEPES pH 7.2, 150 mM NaCl, 25°C; without inhibitors
[2] = molecular target: the molecule itself; assay: dynamic light scattering; 3 mg/ml Hsp90αMC in 20 mM HEPES pH 7.2, 150 mM NaCl, 25°C; without or with 0.5 mM inhibitors (chlorobiocin, derrubone, coumermycin A1 or MDCC; 5% DMSO); dimers to hexamer
[3] = molecular target: the molecule itself; assay: SEC; size-exclusion chromatography of the purified protein, 20 mM HEPES Na pH 7.2, 150 mM NaCl
[4] = molecular target: the molecule itself; assay: crystal structure; MDCC-labelled Hsp90αMC crystallised in 0.1 M succinic acid pH 6.5, 12% PEG 3350, 20 mM calcium chloride; 3.5 Å; hexamer through crystallographic symmetry

B1: Hsp90α_23–699_E47A (FL Hsp90α) (domain or fragment)
chain: not shown
notes: Hsp90α, human, residues 23-699 with E47A; N-terminal truncation (printed as Δ23) and C-terminal tail removed; also called full-length (FL) Hsp90α; source: E. coli, purified (same procedure as for Hsp90αMC); not shown: 6xHis, N-terminal, cleaved
- stoichiometry N [1]: 6

B2: Hsp90α_433–696 (Hsp90αC+) (domain or fragment)
chain: not shown
notes: Hsp90α, human, residues 433-696; The results speak of 'the CTD'; also called the CTD; source: E. coli, purified (same procedure as for Hsp90αMC); not shown: 6xHis, N-terminal, cleaved
- stoichiometry N [1]: 4

B3: Hsp90α_293–699 (Hsp90αMC), middle and C-terminal domains of human Hsp90α (domain or fragment)
chain: not shown
notes: Hsp90α (90 kDa heat-shock protein alpha), human, residues 293-699 (middle and C-terminal domains); TEV site between the tag and the protein; also called Hsp90α MD and CTD; apo Hsp90αMC; source: E. coli, purified (Ni-NTA, TEV cleavage, second Ni-NTA, size-exclusion chromatography); not shown: 6xHis, N-terminal, cleaved
- stoichiometry N [2]: 6
- stoichiometry N [3]: 2

B4: MDCC–Hsp90αMC (Hsp90α 293–699 covalently linked to MDCC at Cys374) (domain or fragment)
chain: not shown
modifications: MDCC {7-diethylamino-3-[N-(2-maleimidoethyl)carbamoyl]coumarin} covalently linked to Cys374
notes: Hsp90α, human, residues 293-699 (middle and C-terminal domains), labelled with MDCC at Cys374; Three molecules in the asymmetric unit; the hexamer is formed through crystallographic symmetry; also called MDCC-labeled Hsp90αMC; source: E. coli, purified; 0.2 mM Hsp90αMC incubated with 0.5 mM MDCC on ice for 30 min, supernatant used; not shown: 6xHis, N-terminal, cleaved
- stoichiometry N [4]: 6
